1 protein from US4331762A, “Bacillus stearothermophilus strain UK 788 and process for producing a useful enzyme” (Unitika Ltd., priority 1980, dated 1982) can be followed below.

Holding throughout (experiment): purified protein, by the assay type
Substrate in data set [1]: NC(=O)c1ccc[n+]([C@@H]2O[C@H](COP(=O)([O-])OP(=O)(O)OC[C@H]3O[C@@H](n4cnc5c(N)ncnc54)[C@H](OP(=O)(O)O)[C@@H]3O)[C@@H](O)[C@H]2O)c1
Particulars: other: coenzyme NADP or NAD; pH 8.9.

Substrate in data set [2]: O=P(O)(O)OC[C@H]1OC(O)[C@H](O)[C@@H](O)[C@@H]1O
As to conditions: other: substrate glucose-6-phosphate; pH 8.9.

Substrate in data set [3]: NC(=O)c1ccc[n+]([C@@H]2O[C@H](COP(=O)([O-])OP(=O)(O)OC[C@H]3O[C@@H](n4cnc5c(N)ncnc54)[C@H](O)[C@@H]3O)[C@@H](O)[C@H]2O)c1
Particulars: other: coenzyme NADP or NAD; pH 8.9.

B1: heat-resistant glucose-6-phosphate dehydrogenase from Bacillus stearothermophilus UK 788 (FERM-P No. 5141) (Geobacillus stearothermophilus ATCC 12980) (protein)
chain: MDNMNPKSIIVIFGATGDLAKRKLFPSLYRLYEKGHLNEQFAVVGVARRPLSADEFRNYVRDSVETAFHQKLADGRFTSHFYYHPFDVTEAESYQRLKSLLEQLDGTYKTEGNRIFYLAMAPEFFGTVTSRLQSEGLTETHGFKRLVIEKPFGHDLASAEKLNDEIRRVFSEREIYRIDHYLGKEMVQNIKVIRFSNAIFEPLWNNRFIANIQITSSETLGVEDRGRYYDHSGALRDMVQNHMLQMVALLAMEPPIKLTTDDIRHEKVKVLRALRPIAHDEVDRYFVRGQYGRGVIHGKHVPAYREEPNVDPDSNTETFVAGKLLIDNFRWAGVPFYIRTGKRMAEKSTKIVVQFKDVPMNLYYRTNETIAPNLLVIHIQPDEGITLHLNGKKTGESTTITAPFQLDYCNNCIDGINTPEAYEKLLYDCMRGDATNFTHWDEVAASWQFVDPISEVWANTKASDFPNYAAGSMGPAAAGELLKKDGFHWWPIEHPRP
One may read the Km as the concentration of substrate that gives half-maximal velocity. In the case of B1, the Michaelis-Menten constant (Km) was found to be 16 µM in data set [1], 160 µM in data set [2] and 1640 µM in data set [3].
